B1: Twister Ribozyme (parent)
chain: AACACUGCCAAUGCCGGUCCCAAGCCCGGAUAAAAGUGGAGGGGGCGG

Variants of: B1
Assay: self-cleavage, relative activity (ratio to wild type); higher = more cleavage; co-transcriptional

In order of rising self-cleavage:
1. AACACUGCCAAUGCCGGUCCCAAGCCCGGCUAAAAGUGGAGUGGGCGG [A30C G42U]  0.0949
2. AACACUGCCAAUGCCGGUCCCAAGCCCGCAUAAAAGUGGUGGGGGCGG [G29C A40U]  0.101
3. AACACUGCCAAUGCCGGUCCCAAGCCCGCAUAAAACUGGAGGGGGCGG [G29C G36C]  0.122
4. AACACUGCCAAUGCCGGUCCCAAGCCCGGCUAAAAGUGGAGAGGGCGG [A30C G42A]  0.129
5. AACACUGCCAAUGCCGGUCCCAAGCCCGCAUAAAAGUGGCGGGGGCGG [G29C A40C]  0.153
6. AACACUGCCAAUGCCGGUCCCAAGCCCGGCUAAAAAUGGAGGGGGCGG [A30C G36A]  0.164
7. AACACUGCCAAUGCCGGUCCCAAGCCCGGCUAAAAGUGGAGGAGGCGG [A30C G43A]  0.187
8. AACACUGCCAAUGCCGGUCCCAAGCCCGCAUAAAAAUGGAGGGGGCGG [G29C G36A]  0.188
9. AACACUGCCAAUGCCGGUCCCAAGCCCGGCUAAAAGUGAAGGGGGCGG [A30C G39A]  0.189
10. AACACUGCCAAUGCCGGUCCCAAGCCCGAAUAAAAGUGGACGGGGCGG [G29A G41C]  0.22
11. AACACUGCCAAUGCCGGUCCCAAGCCCGUAUAAAAGUGGAGUGGGCGG [G29U G42U]  0.261
12. AACACUGCCAAUGCCGGUCCCAAGCCCGGCUAAAAGUGGAGGGGCCGG [A30C G45C]  0.266
13. AACACUGCCAAUGCCGGUCCCAAGCCCGCAUAAUAGUGGAGGGGGCGG [G29C A34U]  0.292
14. AACACUGCCAAUGCCGGUCCCAAGCCCGGCUAAAGGUGGAGGGGGCGG [A30C A35G]  0.38
15. AACACUGCCAAUGCCGGUCCCAAGCCCGUAUAAAAGUGGAGCGGGCGG [G29U G42C]  0.388
16. AACACUGCCAAUGCCGGUCCCAAGCCCGUAUAAAAGGGGAGGGGGCGG [G29U U37G]  0.418
17. AACACUGCCAAUGCCGGUCCCAAGCCCGUAUAAAAGUGGAAGGGGCGG [G29U G41A]  0.422
18. AACACUGCCAAUGCCGGUCCCAAGCCCGAAUAAAAGCGGAGGGGGCGG [G29A U37C]  0.444
19. AACACUGCCAAUGCCGGUCCCAAGCCCGAAUAAAAGUGGAAGGGGCGG [G29A G41A]  0.452
20. AACACUGCCAAUGCCGGUCCCAAGCCCGAAUAAAAGUGGAGCGGGCGG [G29A G42C]  0.46
21. AACACUGCCAAUGCCGGUCCCAAGCCCGUAUAAAAAUGGAGGGGGCGG [G29U G36A]  0.481
22. AACACUGCCAAUGCCGGUCCCAAGCCCGCAUGAAAGUGGAGGGGGCGG [G29C A32G]  0.519
23. AACACUGCCAAUGCCGGUCCCAAGCCCGUAUAAAAGUGGAUGGGGCGG [G29U G41U]  0.521
24. AACACUGCCAAUGCCGGUCCCAAGCCCGCAUAAAAGUGGAGGGGGCGA [G29C G48A]  0.56
25. AACACUGCCAAUGCCGGUCCCAAGCCCGGCUAGAAGUGGAGGGGGCGG [A30C A33G]  0.58
26. AACACUGCCAAUGCCGGUCCCAAGCCCGCAUAAAAGUGGAGGGGGGGG [G29C C46G]  0.586
27. AACACUGCCAAUGCCGGUCCCAAGCCCGCAUCAAAGUGGAGGGGGCGG [G29C A32C]  0.662
28. AACACUGCCAAUGCCGGUCCCAAGCCCGUAUAAGAGUGGAGGGGGCGG [G29U A34G]  0.684
29. AACACUGCCAAUGCCGGUCCCAAGCCCGCAUAAAAGUGGAGGGGGCGC [G29C G48C]  0.688
30. AACACUGCCAAUGCCGGUCCCAAGCCCGAAUAAAAGUCGAGGGGGCGG [G29A G38C]  0.7
31. AACACUGCCAAUGCCGGUCCCAAGCCCGCAUAAAAGUGGAGGGGGAGG [G29C C46A]  0.708
32. AACACUGCCAAUGCCGGUCCCAAGCCCGGCUAAAAGUGGAGGGGACGG [A30C G45A]  0.733
33. AACACUGCCAAUGCCGGUCCCAAGCCCGCAUAAAAGUCGAGGGGGCGG [G29C G38C]  0.736
34. AACACUGCCAAUGCCGGUCCCAAGCCCGAAUAAACGUGGAGGGGGCGG [G29A A35C]  0.762
35. AACACUGCCAAUGCCGGUCCCAAGCCCGCAUAAAAGUGGAGGGGGUGG [G29C C46U]  0.769
36. AACACUGCCAAUGCCGGUCCCAAGCCCGAAUAAAAGUAGAGGGGGCGG [G29A G38A]  0.772
37. AACACUGCCAAUGCCGGUCCCAAGCCCGUAUAAAAGUAGAGGGGGCGG [G29U G38A]  0.775
38. AACACUGCCAAUGCCGGUCCCAAGCCCGUAUAAAAGUCGAGGGGGCGG [G29U G38C]  0.778
39. AACACUGCCAAUGCCGGUCCCAAGCCCGUAUGAAAGUGGAGGGGGCGG [G29U A32G]  0.781
40. AACACUGCCAAUGCCGGUCCCAAGCCCGGGUAAACGUGGAGGGGGCGG [A30G A35C]  0.792
41. AACACUGCCAAUGCCGGUCCCAAGCCCGCAUAAAAGUAGAGGGGGCGG [G29C G38A]  0.796
42. AACACUGCCAAUGCCGGUCCCAAGCCCGGGUAGAAGUGGAGGGGGCGG [A30G A33G]  0.806
43. AACACUGCCAAUGCCGGUCCCAAGCCCGGCUAAACGUGGAGGGGGCGG [A30C A35C]  0.808
44. AACACUGCCAAUGCCGGUCCCAAGCCCGGCUGAAAGUGGAGGGGGCGG [A30C A32G]  0.821
45. AACACUGCCAAUGCCGGUCCCAAGCCCGUAUACAAGUGGAGGGGGCGG [G29U A33C]  0.821
46. AACACUGCCAAUGCCGGUCCCAAGCCCGAAUAAUAGUGGAGGGGGCGG [G29A A34U]  0.833
47. AACACUGCCAAUGCCGGUCCCAAGCCCGGCGAAAAGUGGAGGGGGCGG [A30C U31G]  0.839
48. AACACUGCCAAUGCCGGUCCCAAGCCCGUAUAAAAGUGGAGGGGGAGG [G29U C46A]  0.876
49. AACACUGCCAAUGCCGGUCCCAAGCCCGAAUAAAUGUGGAGGGGGCGG [G29A A35U]  0.887
50. AACACUGCCAAUGCCGGUCCCAAGCCCGUAUAAAUGUGGAGGGGGCGG [G29U A35U]  0.892
51. AACACUGCCAAUGCCGGUCCCAAGCCCGUAUAUAAGUGGAGGGGGCGG [G29U A33U]  0.911
52. AACACUGCCAAUGCCGGUCCCAAGCCCGUAUUAAAGUGGAGGGGGCGG [G29U A32U]  0.911
53. AACACUGCCAAUGCCGGUCCCAAGCCCGCACAAAAGUGGAGGGGGCGG [G29C U31C]  0.999
54. AACACUGCCAAUGCCGGUCCCAAGCCCGUAUAAAAGUGGAGGGGGCGC [G29U G48C]  1.11
